Measurements from patent US20240287172A1 (SCIRHOM, published 2024).

T1: hiR2-FL-R554A-T7 (human, UniProt Q6PJF5 1-856)
T1 sequence: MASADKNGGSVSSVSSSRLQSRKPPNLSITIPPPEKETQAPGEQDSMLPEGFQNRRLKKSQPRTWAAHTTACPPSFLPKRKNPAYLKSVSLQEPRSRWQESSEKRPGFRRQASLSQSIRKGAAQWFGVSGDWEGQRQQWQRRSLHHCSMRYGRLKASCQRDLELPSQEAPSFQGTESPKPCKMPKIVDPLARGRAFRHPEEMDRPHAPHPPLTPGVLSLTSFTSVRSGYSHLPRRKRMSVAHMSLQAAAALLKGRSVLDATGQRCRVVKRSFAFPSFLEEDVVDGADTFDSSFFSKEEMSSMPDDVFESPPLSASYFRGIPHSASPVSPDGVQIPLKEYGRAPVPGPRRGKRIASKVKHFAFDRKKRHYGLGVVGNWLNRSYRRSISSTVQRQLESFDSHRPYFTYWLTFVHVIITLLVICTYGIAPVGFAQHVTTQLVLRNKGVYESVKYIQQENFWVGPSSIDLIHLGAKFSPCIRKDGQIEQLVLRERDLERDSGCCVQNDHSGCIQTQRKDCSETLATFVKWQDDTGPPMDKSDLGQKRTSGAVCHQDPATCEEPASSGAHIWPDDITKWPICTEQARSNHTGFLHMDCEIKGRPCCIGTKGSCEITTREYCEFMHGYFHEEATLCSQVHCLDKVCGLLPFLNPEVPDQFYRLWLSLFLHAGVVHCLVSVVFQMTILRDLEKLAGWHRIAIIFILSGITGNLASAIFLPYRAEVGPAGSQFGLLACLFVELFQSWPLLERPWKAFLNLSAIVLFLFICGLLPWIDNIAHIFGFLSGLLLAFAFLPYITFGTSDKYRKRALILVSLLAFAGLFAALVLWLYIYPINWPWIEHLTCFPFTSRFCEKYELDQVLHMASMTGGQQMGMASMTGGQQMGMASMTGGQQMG

T2: hiR2-FL-G546A-T7 (human, UniProt Q6PJF5 1-856)
T2 sequence: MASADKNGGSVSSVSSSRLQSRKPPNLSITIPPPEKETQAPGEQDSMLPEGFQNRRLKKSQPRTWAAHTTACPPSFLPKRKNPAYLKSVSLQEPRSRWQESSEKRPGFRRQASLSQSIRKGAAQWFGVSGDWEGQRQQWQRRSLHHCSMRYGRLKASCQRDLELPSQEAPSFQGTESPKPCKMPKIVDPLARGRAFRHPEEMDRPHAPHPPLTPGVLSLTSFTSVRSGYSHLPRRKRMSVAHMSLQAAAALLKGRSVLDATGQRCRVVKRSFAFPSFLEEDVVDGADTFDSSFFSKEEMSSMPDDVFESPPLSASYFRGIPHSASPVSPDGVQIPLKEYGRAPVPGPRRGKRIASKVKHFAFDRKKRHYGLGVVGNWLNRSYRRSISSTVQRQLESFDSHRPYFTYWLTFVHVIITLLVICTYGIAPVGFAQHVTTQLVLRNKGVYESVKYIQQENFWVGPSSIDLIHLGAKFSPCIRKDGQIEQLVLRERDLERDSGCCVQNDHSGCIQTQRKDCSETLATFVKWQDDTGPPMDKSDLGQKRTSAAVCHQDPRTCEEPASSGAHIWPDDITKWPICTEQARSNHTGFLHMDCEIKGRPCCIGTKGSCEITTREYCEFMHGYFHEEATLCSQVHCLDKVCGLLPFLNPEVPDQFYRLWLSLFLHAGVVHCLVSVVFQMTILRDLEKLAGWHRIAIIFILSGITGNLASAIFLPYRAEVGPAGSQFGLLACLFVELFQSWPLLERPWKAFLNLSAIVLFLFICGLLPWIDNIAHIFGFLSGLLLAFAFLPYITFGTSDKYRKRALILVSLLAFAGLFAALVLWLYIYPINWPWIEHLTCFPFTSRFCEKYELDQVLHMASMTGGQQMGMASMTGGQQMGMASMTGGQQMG


What was measured:
hiR2-FL-R554A-T7 = target: T1, hiR2-FL-R554A-T7; test: FACS on MEF-DKO cells expressing the variant, 3 µg/ml antibody
Procedure, shortened: (§1)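 Flow cytometry read-out of binding to variant-expressing cells after two-step staining on ice: 1 h with antibody at 3 μg/ml, then 1 h with PE-labelled goat anti-mouse IgG F(ab′)2 diluted 1:100. Controls received FACS buffer without primary antibody.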

hiR2-FL-G546A-T7 = target: T2, hiR2-FL-G546A-T7; test: as above
Procedure, shortened: as §1

| Binder | loss of binding vs wild type (hiR2-FL-R554A-T7) [%] | loss of binding vs wild type (hiR2-FL-G546A-T7) [%] |
| --- | --- | --- |
| antibody 48 (antibody, V domains shown, mouse IgG, kappa light chain; also called clone #48; purified antibody 48) VH: QVQLQQSGTELVRPGTSVKVSCKASGYAFTNYLIEWVKQRPGQGLEWIGVINPGSGFTKYNEKFKGKATLTADKSSSTVYMHLSSLTSEDSAVYFCARGLYRAMDYWGQGTSVTVSS VL: DIQMTQSPASQSASLGESVTITCLASQTIATWLAWYQQKPGKSPQLLIYGATTLADGVPSRFSGGGSGTKFSFKISSLQAEDFVSYYCQQLYSTPYTFGGGTKLEIK | ≥ 30 |  |
| antibody 3 (antibody, V domains shown, mouse IgG, kappa light chain; also called clone #3; purified antibody 3) VH: QVTLKESGPGILQPSQTLSLTCSFSGFSLTTFAMGIGWVRQPSGKGLEWLAHIWWDGEKYNNPVLKSRLTISKDTSKNQVFLRIANVDTPDTATYYCARISSIYYIIDNWGQGTSVTVSS VL: DIVLTQSPATLSVTPGHSVSLSCRASQSISNNLHWYQKKSHESPRLLIKYVSQSISGIPSRFSGSGSGTDFTLSINSVETEDFGMYFCQQSYNWPLTFGAGTKLELK |  | ≥ 30 |
| antibody 34 (antibody, V domains shown, mouse IgG, kappa light chain; also called clone #34; purified antibody 34) VH: QVTLKESGPGILQPSQTLSLTCSFSGFSLSTFSLGVGWIRQSSGKGLEWLAHIWWDDEKYYNPALKSRLTISKDTSKNQVFLKIANVDAADTATYYCARAYYSKSYYALDYWGQGTSVTVSS VL: DIQMTQSPSSLSASLGERVSLTCRASQEISGYLSWLQQKPDGTIKRLIYAASTLDSGVPKRFSGSRSGSDYSLAISSLESEDFADYYCLQYANFPFTFGSGTKLEIK |  | ≥ 30 |
| antibody 5 (antibody, V domains shown, mouse IgG, kappa light chain; also called clone #5; purified antibody 5) VH: QVTLKESGPGILQPSQTLSLTCSFSGFSLSTFGMGVGWIRQPSGKGLEWLAHIWWDDEKYYNSALKSRLTISKATSKNQAFLKIANVDTADTATYYCARISNYGSNYWYFNVWGTGTTVTVSS VL: QVVLTQSPALMSASPGEKVTMTCSAGSSVSCMYWYQQKPGSSPRVLIYDTSNLASGVPARFTGSGSGTSYSLTISRMEAEDAASYYCQQWNSYPLTFGAGTKLELK | ≥ 60 | ≥ 30 |
| antibody 44 (antibody, V domains shown, mouse IgG, kappa light chain; also called clone #44; purified antibody 44) VH: QVTLKESGPGILQPSQTLSLTCSFSGFSLSTFGMGVGWIRQPSEKGLEWLAHIWWDDDKYYNPALKSRLTISKDTSKNQIFLKITNVDTAETATYYCSRIGNYGSNYWYFDVWGTGTTVTVSS VL: QIVLTQSPAVMSASPGEKVTMTCTASSSVYYMYWYQQTPGSSPRLLIYDTSNLASGVPVRFSGSGSGTSYSLTISRMEAEDAATYYCQQWNTYPLTFGAGTKLELK | ≥ 60 | ≥ 30 |
| antibody 43 (antibody, V domains shown, mouse IgG, kappa light chain; also called clone #43; purified antibody 43) VH: QVALKESGPGILQPSQTLSLTCSFSGFSLSTFGMGVGWIRQSSGKGLEWLANIWWDDDKYYNPALKSRLTISKDASKNQAFLKIANVDTADTATYYCARIGNYGSNYWYFDVWGTGTTVTVSS VL: QIVLTQSPAIMSASPGERVTMTCSANSRISYMYWYQQKPGSSPRLLIYDTSNLASGVPVRFSGSGSGTSYSLTISRMEAEDAATYNCQQWSSYPLTFGAGTKLELK | ≥ 30 | ≥ 30 |
| antibody 22 (antibody, V domains shown, mouse IgG, kappa light chain; also called clone #22; purified antibody 22) VH: QVTLKESGPGILQPSQTLSLTCSFSGFSLSTFGMGVGWIRQPSGKGLEWLAHIWWDDEKYYNSALKSRLTISKATSKNQVFLKIANVDTADTATYYCARISNYGSNYWYFNVWGTGTTVTVSS VL: QVVLTQSPALMSASPGEKVTMTCSAGSSVSYMYWYQQKPGSSPRVLIYDTSNLASGVPARFTGSGSGTSYSLTISRMEAEDAATYYCQQWNSYPLTFGAGTKLELK | ≥ 30 |  |
